The target in assay [1] is Plasma Membrane Calcium ATPase 4 (mouse (endogenous in sperm)) (UniProt Q6Q477). Briefly: FRET or BRET. A general note: Bioluminescence resonance energy transfer reports proximity on the nanometre scale.
The target is the same in assay [2]. Nature of the assay: FRET or BRET. The source holds these as a separate data set.

Like-named read-outs stand apart in the source and are kept apart here.

UniProt Q6Q477, sequence (Q6Q477 whole entry): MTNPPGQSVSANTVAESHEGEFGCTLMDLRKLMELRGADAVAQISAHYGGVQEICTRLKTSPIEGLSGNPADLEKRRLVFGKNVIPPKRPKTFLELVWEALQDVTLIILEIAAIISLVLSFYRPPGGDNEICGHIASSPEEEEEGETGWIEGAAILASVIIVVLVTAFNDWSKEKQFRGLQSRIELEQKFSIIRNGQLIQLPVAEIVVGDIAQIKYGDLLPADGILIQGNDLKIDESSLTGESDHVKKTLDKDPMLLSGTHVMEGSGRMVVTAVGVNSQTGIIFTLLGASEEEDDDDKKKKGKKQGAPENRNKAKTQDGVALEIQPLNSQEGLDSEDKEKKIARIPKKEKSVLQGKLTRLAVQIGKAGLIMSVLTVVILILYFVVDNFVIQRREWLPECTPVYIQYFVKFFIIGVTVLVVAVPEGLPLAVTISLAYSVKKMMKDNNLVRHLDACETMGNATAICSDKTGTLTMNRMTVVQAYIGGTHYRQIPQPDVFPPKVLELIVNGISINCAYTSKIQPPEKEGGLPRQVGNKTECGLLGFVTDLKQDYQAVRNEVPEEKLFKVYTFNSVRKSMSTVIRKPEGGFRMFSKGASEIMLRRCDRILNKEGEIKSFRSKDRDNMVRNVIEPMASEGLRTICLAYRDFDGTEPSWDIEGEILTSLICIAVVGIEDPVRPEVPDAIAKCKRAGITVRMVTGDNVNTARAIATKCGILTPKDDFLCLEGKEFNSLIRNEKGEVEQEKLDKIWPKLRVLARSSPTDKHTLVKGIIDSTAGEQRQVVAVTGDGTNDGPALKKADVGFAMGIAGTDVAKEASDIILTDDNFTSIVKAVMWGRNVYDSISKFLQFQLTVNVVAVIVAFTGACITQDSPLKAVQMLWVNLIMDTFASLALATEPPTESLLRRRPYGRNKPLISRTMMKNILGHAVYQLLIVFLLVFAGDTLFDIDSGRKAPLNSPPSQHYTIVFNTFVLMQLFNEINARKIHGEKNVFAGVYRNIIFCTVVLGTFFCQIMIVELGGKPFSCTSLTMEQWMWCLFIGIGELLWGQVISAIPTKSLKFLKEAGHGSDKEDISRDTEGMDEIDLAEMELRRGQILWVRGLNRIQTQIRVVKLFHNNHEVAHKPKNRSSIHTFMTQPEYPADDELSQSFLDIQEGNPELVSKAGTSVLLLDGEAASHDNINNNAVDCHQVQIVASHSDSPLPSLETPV

In the case of “neuronal nitric oxide synthase (from UniProt Q9Z0J4 1-1429) (enzyme)”, the values for the FRET efficiency in assay [1] and in assay [2] were 24% and 6%, respectively.
